Source: EP4814019A1 (Zhejiang University, dated 2026)

B1: NY-ESO-1-VHH-1 (VHH)
VHH: QVQLQESGGGLVQAGGSLRLSCAASGTIFHQIDMGWYRQAPGKERELVAAIGTGSSTYYADSVKGRFTISRDNAKNTVYLQMNSLKPEDTAVYYCAAWHYYWGQGTQVTVSS
notes: Synthetic nanobody from a yeast display library
B2: NY-ESO-1-VHH-4 (VHH)
VHH: QVQLQESGGGLVQAGGSLRLSCAASGNIFYPQYMGWYRQAPGKEREFVAAISDGASTYYADSVKGRFTISRDNAKNTVYLQMNSLKPEDTAVYYCADLWYWGQGTQVTVSS
notes: as for B1
B3: NY-ESO-1-VHH-5 (VHH)
VHH: QVQLQESGGGLVQAGGSLRLSCAASGNISAVYTMGWYRQAPGKEREFVAAIDYGGSTYYADSVKGRFTISRDNAKNTVYLQMNSLKPEDTAVYYCASYYHGYWGQGTQVTVSS
notes: as for B1
B4: NY-ESO-1-VHH-9 (VHH)
VHH: QVQLQESGGGLVQAGGSLRLSCAASGYISYLNTMGWYRQAPGKEREFVATIGQGSSTYYADSVKGRFTISRDNAKNTVYLQMNSLKPEDTAVYYCADQLGYWGQGTQVTVSS
notes: as for B1

Each binder was assayed against T1, …-HLA A0201 complex (human, biotinylated with BirA (site not stated)) (assay: SPR (BIAcore), biotinylated pMHC on streptavidin-coupled CM5 chip, nanobody as analyte).
T1 construct: Held on streptavidin in the ELISA and in SPR; also called NY-ESO-1 antigen; positive antigen NY-ESO-1

In order of rising Kd:
1. B3  68.1 nM
2. B1  96.6 nM
3. B2  102 nM
4. B4  1170 nM
